Results on 30 sequences are retold here after the nanobody polyreactivity screen of Harvey et al. (2022).

This data set is described as follows: yeast display, Sf9 membrane polyspecificity reagent, FACS + sequencing; frameworks hold sequencing errors. A digest of the protocol: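 Polyreactivity labels are assigned by the sorting gate from which each nanobody was recovered. The gates were low and high (top ~1%), set on anti-HA fluorescence for expression and streptavidin fluorescence for reagent binding. Before sorting, galactose-induced (36–48 hours) yeast display cells were stained for 1 hour at 4 °C with 10% biotinylated, detergent-solubilized Sf9 membrane reagent.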
As to “QVQLVESGGRLVQAGGSLRLSCAASGSTFIQNAMGWSRQAPGKDRELVAAITSGGGTNYADSVKGRFTISRDNAKNTVYLQMNSLKPEDTAVYYCAAEPFNYDDFWFGWEYLYDYWGQATQVTVSS”, the “polyreactivity (PSR sort gate)” value is on record as “low polyreactivity”.
The result for “QVQLLESGGGLVQAGGSLRLSCAASGRIFGSNAMGWYRQAPGKERELVAAITRGGSTNYADSVKGRFTISRDNAKNTVYLQMNSLKPEDTAVYYCAAVPFGEVDYWGQGTQVTVSS” reads “high polyreactivity”; that for “QVQLVESGGGLVQAGGTLRLSCAASGIIFYSNAMGWYRQAPGKEWELVAGISKSGGSTYYADSVKGRFTISRDNAKNNVYLHMNSLKPEDTAVYYCAVRGGGRYRSWGYDYWGQGTQVTVSS”, “high polyreactivity”; that for “QVQLVESGGGLVQAGGSLRLSCAASGSTFGHYAMGWYRPAPGKERELVAVISRSGARTYYADSVKGRYTISRDNAKNTVYLQMNSLKPEDTAVYYCNAGPYGGNPFDYWGQGTQVTVSS”, “high polyreactivity”.
Regarding “QVQLVESGGGLVQAGGRLRLSCAASGFIFRRYAIGWYRQAPGKERELVAAINRGGRTYYADSVKGRFTISRDNAKNTVYLQMNSLKPEDTAVYYCAVGSVSSDDWGQGTQVTVSS”, the “polyreactivity (PSR sort gate)” value is “high polyreactivity”.
For the sequence “QVQLVESGGGLVQAGRSLRLSCAPSGLTISSNAMGGYRQAPGKERELVAGISRRGGRTYYADSVKGRFTISRDTAKHTVYLQMNSLKPEDTAVYYCAADRVGNSYDYWGQGTQGTVSS”, the “polyreactivity (PSR sort gate)” value is “high polyreactivity”.
As for “QVQLVESGGGLVQAGGSLRLSCAASGRTFYYYAMGWYRQAPGKERELVAAINTRGTSTYYADSVKGRFTISRDNAKNTVYLQMNSLKPEDTAVYYCAVDPYGDSWEDWFRNYYYGYDYWGQGTQVTVSS”, the “polyreactivity (PSR sort gate)” value is “low polyreactivity”.
Turning to “QVQLVESGGGLVQAGGSLRLSCAASGFNFNKNAMGWYIQAPGKERELVASITASGTTTYADSVKGRFTISRDNAKNTVYLQMNSLKPEDTAVYYCAVRTRIWGFYYWGQGTQVTVSS”, the “polyreactivity (PSR sort gate)” value is reported as “high polyreactivity”.
With “QVQLVESGGGLVQAGGSLRLSCDASGSIFNYYAMGWYRQAPGKERELVATITRGGSTYYADSVKGRFTISRDNAKNTVYLQMNILKPEDTAVYYCAKVGRSTAYQNGYDYWGQGTQVTVSS”, the “polyreactivity (PSR sort gate)” value is reported as “low polyreactivity”.
“QVHLVESGGGLVQAGGSLRLSCAASGSTFYRYAMGWYRQAPGKEREFVASISKRGGSTYYADSVKGRFTISRDNAKNTVYLQMISLKPEETAVYYCAADPKFFSGSYLYGYWGQGTQVTVSS”: the “polyreactivity (PSR sort gate)” value is “high polyreactivity”.
For “QVQLVQSGGGLVQAGGSLRLSCAASGSTIAYKAMGWNRQAPGKEREMLAAISWRGGSTYYADSVKGRFTISRDNAKNTVYLQMKSLKPEDTAVYYCAKVYRAYTDVVRYGYWGQGSQVTVSS”, the “polyreactivity (PSR sort gate)” value is reported as “high polyreactivity”.
For the sequence “QVQLVESGGGLVPAGGSLRLSCAASGFTFEYYVIGWYRHAPGKERELVAAISSRGGSTYYADSVKGRFTISRDNAKNTVYLQMNSLKPDDTAVYYGATRDPYPRRREFEYWGQGTQVTVSS”, the “polyreactivity (PSR sort gate)” value is “low polyreactivity”.
“QVQLVESGGGLVQAGGSLRISCAATGRIFGPYTMGWYRQAPGKERELVARISRRGGSTYYADSVKGRFTISRDNAKNTVYFQMNSLKPEDTAVYYCARSQAVYDGWFAKFGYWGQGTQVTVSS”: the “polyreactivity (PSR sort gate)” value is listed as “high polyreactivity”.
For “QVQLVESGGGLVQAGGSLRLSCAASGRIFYRNAMGWYRKAPGKEREWVAAISSSAGSTFYADSVKGRFTISRDNSKNTVYLQMNSLKPEDTAVYYCAAGSGTFVTRYRYGYWGQGTQVTVSS”, the “polyreactivity (PSR sort gate)” value is recorded as “high polyreactivity”.
Take “QVQLVESGGGLVQAGGSLRLSCAASGSIFSRYTMGWYRQAPGKERELVAAISGSTTRTYYADSVKGRFTISRDNAKNTVYLQMNSLKPEDTAVYYCAATRGRGGRDDYWGQGTQVTVSS”: the “polyreactivity (PSR sort gate)” value is listed as “high polyreactivity”.
Then “QVQLVESGGGLVQAGGSLRLSCAASGSTFRGYVMGWYRQAPGKERELVAAITYSGGSTYYADSVKGRFTISRDNAKNTVYLQLNSLKPEDTAVYYGADEIYDSYYEDDYWGQGTQVTVSS”, with “high polyreactivity”; and “QVQLEESGGGLVQAGGSLLLICADSGSILGGNAMGWYRHAPGKERQMVDAITFSGGGTYYADSVKGRFTLSRDNAKNTVYLQMNSLKPEDTAVYYCAADKDGYTYEFDYWGQGTQVTVSS”, with “low polyreactivity”.
For “QVQLVESGGGLVQAGGSLRLSCDASGSTIIRNAMGWSRQAPGKERELVAAISTSGGRTHYADSVKGRFTISRDNAKNTVYLKMNSLKPEDTAVYYCATRGKGHYYYWGQGTQVTVSS”, the “polyreactivity (PSR sort gate)” value was “high polyreactivity”.
Regarding “QVQLVESGGGLVQAGGSLRLSCAASGRTFRVYAMGWYRQAPGKEREFVAAISYSGGRTNYADSVKGRFTISRDNSKNTVYLQMNSLKPEDTAVYYCAARYSWAEGDYWGQGTQVTVSS”, the “polyreactivity (PSR sort gate)” value is listed as “low polyreactivity”.
Take “QVQLVESGGGLVQAGGSLRLSCAASGLTFAINTMGWYRQAPGKERELVAAITGSGGSTYYADSVKGRFTISRDNAKNTVYLQMNSLKPEDTAVYYCAAELLYVQGYAMDYWGQGTQVTVSS”: the “polyreactivity (PSR sort gate)” value is listed as “low polyreactivity”.
With “QVQLVESGGGLVQAGGSLRLSCAASGRIVRNAIGWYRQAPGKERELVAAISRSGGSTYYADSVKGRFTISRDNAKNTVYLQMNSLKPEDTAVYYCDKRSTSQSLQGEYWGQGTQVTVSS”, the “polyreactivity (PSR sort gate)” value is recorded as “high polyreactivity”.
For “QVQLVESGGGLVQAGGSLRLSCAASGSIFRYNAMGWYRQAPGKERELVAVIRGTSGDTYYADSVKGRFTISRDNAKNTVYLQMNSLKPEDTAVYYCAAQLAGASYSHSNYSDWFDYWGQGTQVTVSS”, the “polyreactivity (PSR sort gate)” value is “low polyreactivity”.
As to “QVQLVESGGGLVQAGGSLRLSCAASGIIFYDYAMGGYREAPGKERELVATITRGGGTKYADSVKGRFTISRDNAKNTVYLQMNSLKPEDTAVYYCAADSHGVYEGDYCGQGTQVTVSS”, the “polyreactivity (PSR sort gate)” value was “low polyreactivity”.
As to “QVQLVESGGGLVQAGGSLRLSSAASGNINSWNTMGWYRQAPGKERELVAAITFRGTRTFYADSVKGRFTISRDNAKNTVYLQMNSLKPDDTAVFYCAARYYYSYSLGYDYWGQGTQVTVSS”, the “polyreactivity (PSR sort gate)” value is “high polyreactivity”.
As for “QVQLVESGGGLVQAGGSLRLSCAASGIFVYYAMGWYRQSPGKERELVAAISSSGGSTYYADSVKGRFTISRDNAKNTVYLQMNSLKREDTAVYYCNTLAYPSDRFEYWGQGTQVTVSS”, the “polyreactivity (PSR sort gate)” value is on record as “high polyreactivity”.
With “QVQLVESCGGLVQAGGSLRLSCAASGIIFSVNAMGWSRQAPGKERELVAAITIGGSTYYADSVKGRFTISRDNAKNTVYLQMNSLKPEDTAVYYCAADEYGPHTFSPESDSWGQGTQVTVSS”, the “polyreactivity (PSR sort gate)” value is recorded as “low polyreactivity”.
Take “QVQLVESGGGLVQAGGSLRLSCAASGRIFGDYGMGWYRQAPGKERELVAAITDRGGPTYYADSVKGRFTISRDNAKNTVYLQRNSLKPEDTAVYYCNARQSDIFDYDYWGQGTQVTVSS”: the “polyreactivity (PSR sort gate)” value is reported as “low polyreactivity”.
For the sequence “QVQQQVSGGGLVQAGGSLRLSCAASGYIFQNVPMGWNRQAPGKERDLVAGIDNGTSTNYADSVNGRFTISRDNAKNTVYLQMNSLKPEVTAVYYCAAAGQADDTLGYWGQGTLVTVSS”, the “polyreactivity (PSR sort gate)” value is reported as “low polyreactivity”.
The result for “QVQLVESGGGLVQAGGSLRLSCAASGSTFYVNAMGWYRPAPGKERELVAAITKSGGNTYYADSVKGRFTISRDNAKNTVYLQMNSLKPEDTAVYYCAAYKRYSSLTGYESWGQGTQVTVSS” reads “high polyreactivity”.
Turning to “QVQLVESGGGLVQAGGSLRLSCAASGFTFYTYVRGWYRQAPGKERELVAAITSGVSTNYADSVKGRFTISRDNAKNTVYLQMNSLKPEDTAVYYCNKDVRPAYRWYDYWGQDTQVTVSS”, the “polyreactivity (PSR sort gate)” value was “low polyreactivity”.
